Experimental data taken from the DeepSol protein solubility set.

Experiment: soluble on expression in E. coli; label from the status in PepcDB or PDB records

With “MGSDKIHHHHHHMSKRQFGLIYISSYQARLFIVDLKKLAIIEQLSSVQFVQGGKKFEVYENELPRLTDALIGFKRKIAEYGIDNYKVYGNRQLLDKISARYLADQIKVRTGLEIEWLNGAQIAYYKIIAGMALPQFSELADDEFTYLLSMGSAMLNLTLFKGQHYLSTWNFALGPEEIEEMAAMTRDTPSDPIDIIGDYISRKLVSFKTIEKPTGKARIIIQHVFGRGEQSLRPQEKARVIDLKQFAGVYSDFREAPDQYLMEKYELDTDSLARMKPTIVLINQLVKIIKPHMMTLTQSSAITGLMIQEAARLKYRPDEYSTIVLTATKNIARRYESGGQHINLSNKFALHIFDRLAHAGMVDRRDRQLLEIAARLHDIGNFINFHNHYEHAAYIVGANQIIGLSDRENEMLLSILKHQDITNLNADEREYRHLDPALQVRVAKLAAILRLANSLDASRKQKISKIVVSIKDEKMLIVVTSKRDLTLERWVFEKNVNLAEAVFGMKIAMKQKRGK” as the sequence, how does the “soluble on expression in E. coli” value read?
Its value is “not soluble”.

With “MGSDKIHHHHHHMSLKQMECVVAVAKLRSFTKAAAKLKVAQPSLSQSIQAVEKQVGVPLFDRSTFPITLTHAGEVYVAKANAIIELYKDLNTQMCDVIGSDKGPLRLGFSQTGYQFIPTALAKFCKRFPCADLRVVQVFSTLKLEKMLSEGDIDIATLVLPLSSPEIDYKIIKENQAFLALPITHPLSQKAIREAQDSPSVSLEELKEERFILPKSTQRSRPIFDEIFRKAGFEPKIFCETETFDIANAIVASGVGACFTLPQFIKEDKQDKVVLFHVDEPLLARTVVLAYRKDKHLSKMACEFLTIARSL” as the sequence, how does the “soluble on expression in E. coli” value read?
The value was “not soluble”.

Which “soluble on expression in E. coli” value does the source give for “MGSDKIHHHHHHMSLSRNSDLHMHSTASDGGYSPTELMEKCHQANLKFVALTDHDTVNGIEEAKQTAHRLGFILIPGIELSTKASGQSVHMLGYGIDWKNDTLKRRLDRQQDIRKQRLEQILLKLKAAGVPLEQDAVLRYADGGAIGRPHVAKALMDKGYVRSVQEAFEHYLAEGRPCYVKRQEYISVEQAIAWIHQAGGVAIVAHPGYYDLDDQLIGWVREYGLDGIEVYHRDHSREVVAHYEQLCKRMEAETGRRLLRTGGSDFHHESYGRTAAPLGTTRIPDQLTYELLHDLERKKTRA” here?
Its value is “not soluble”.

Which “soluble on expression in E. coli” value does the source give for “MGSDKIHHHHHHMSMPSIDIEPTPRTLRTLALFDLDHTLLDVDSDYLWGEYIVKHNLVDEAQYRTANQKFYNDYIEGRLDATEYNEFVAQFLSSLPMGRLHELREDYIKSEIEPHIRPKAMEVLCQHVEEGHDVVIISATNDFVVSAIAKRFGIEDGNVLSTPLEIKDKRYTGKLTDKPNFKEGKIYHLDKWIGKQQLAGIHFNKTYAYSDSKNDIPLLEWADVAICVSPDAALHAHALSHRWAVEDWSI” here?
Its value is “not soluble”.

With “MGSDKIHHHHHHMSNAKRLLVSDMKMGVDISENELLRQSEGLLQRLLFDHTTQRNIFWATDDYTTLGDAYKYDAPITTDSITGEHDTVIQPRVLKSKEEQANRTKDKAEVFTPSWVCNAQNNLIDEAWFGRKDVFNIEQPETKTWIATTEPITFPEGKTWKDYVCSTRMEITCGEAPYLVSRYDTTTGEFIPIPQRIGMLDRKLRIISENTSSTGEWLKMAQKAYKNIYAYEWQGDNLLLAREALLITFIEYYEEKFGKRPLDKSIEYIAYIISWNVWQMDGLKGVVPNSCTHGVSVLPDDLFESMEELILCPGCQNESIKKHNGTYCLIRDWGCKDPKTGENNRKIRFVDLIKNNI” as the sequence, how does the “soluble on expression in E. coli” value read?
Its value is “not soluble”.

Which “soluble on expression in E. coli” value does the source give for “MGSDKIHHHHHHMSNHSSSIPELSDNGIRYYQTYNESLSLWPVRCKSFYISTRFGQTHVIASGPEDAPPLVLLHGALFSSTMWYPNIADWSSKYRTYAVDIIGDKNKSIPENVSGTRTDYANWLLDVFDNLGIEKSHMIGLSLGGLHTMNFLLRMPERVKSAAILSPAETFLPFHHDFYKYALGLTASNGVETFLNWMMNDQNVLHPIFVKQFKAGVMWQDGSRNPNPNADGFPYVFTDEELRSARVPILLLLGEHEVIYDPHSALHRASSFVPDIEAEVIKNAGHVLSMEQPTYVNERVMRFFNA” here?
Its value is “soluble”.

Which “soluble on expression in E. coli” value does the source give for “MGSDKIHHHHHHMSNPLLKQICELDVFTLLVFKSIFDNGHANSAAKALNVSAPKISRCLNALRLTFNDELFYRRQQGLKPTPLAESLYVAICQFTDAVHHLEQSALQLQHSASHVELPLHIAASNGLLSFLAPQLSSPEVISELGQIRLHKWQDNSAELIHAGELDLGITQEPVETKELTITHLGSIASVYIVASKHHPLWESQFDITLEQICRHSFLCLEMKGFNARIDPLELFCQRQGLLLPSIERVIDREEWYAHLLTMQSVAFCSSIDMHTVKHMPGLKLVPLSVSELHRLHETIMPPQYFLIEKPRSHRRYNQTQCELVVRSWLTVLSSNSRVSQ” here?
The value was “not soluble”.

For “MGSDKIHHHHHHMSNQKIIRLSPNPQDFGHDCDDLDPQMFASELPVQHTHVYYEDDNLGLYIGVWDTSTMVEAAAPSPCDEFMYLLEGEVEIKNSKTGTMEKVQAGEAFVIPKGYDCQWHQTGYLRKFFVISEHPKEDIPTTPVVEGIIKLKVNNSSQMAIEDSTGVEIEPTNTPFVIKGKEPAQKHLPSYKDHTGKFIAGTWHSEAFNSEMQPFPRNEFIYLQSGSLVITEQEGDEQVFTAGDAFFVPQGALCSWRSIGDVHTFYAILQSS”, which “soluble on expression in E. coli” value is on record?
The value was “not soluble”.

Which “soluble on expression in E. coli” value does the source give for “MGSDKIHHHHHHMSNTDKYYRDRSHITGKLDLQKLPKAIREKQYGIDVREAMAQTAEAIAGVQSTAQKFNQDTKNQVNQLDEKYTREIRAIVLGDTTSVATPPIQEPNSEASNPLSNLYETARGQVLYDFVKQSSLTKVSKIGVIGDSVAATAGGFPDILAHQYNIYVENLSVGGAKMSDYNHDAIVNQASRLQQCDVVIIQGTDDDWVHDISLGYAGDTNIKTYLGGLRETIKRVKNNNPKAKLIVVNCTRQCVDVHGKYRTEQSKNTFGLTLIDYMEAQKKYLNQQDVPYVDLMKPTSIFEPDNPAFKKTMMHDGLHPTPEAHQYIVQEIAKDYSYYYDK” here?
The value was “not soluble”.

Which “soluble on expression in E. coli” value does the source give for “MGSDKIHHHHHHMSPLFTNSEIISRVIKEHFNKNLDHYDGVKFSFMVLNKKNPSQMIIISSYPDEWVNLYKENKYQHIDPVVLASFNKISPFSWEKSLVINTRLQLAKIFDLSKKYDIINGYTFVLHDHGDNLAMLSIIVDNSYPDDVETFIEERKDIFQMLLIEAYEKIISLCKEMIGNKKQLNNKEIFSQRENEILYWASMGKTYLEVAIILGIKTSTVKFHIGNVVKKLGVLNAKHAIRLGVELQLIKPVQ” here?
The value was “not soluble”.

For “MGSDKIHHHHHHMSQLLIKNAYLITMNADREVYENGSILIENNIIKEVGKFDINIVDKDAEIYDAKGKILMPGLVNTHVHLSQQLGRGLADDVVLLTWLRERIWPYESSFNYEDSLISSTACCVELIKSGVTTFLESGGQYVDAMVEAVDKTGLRACLAKSVMDTGDGLPEAWQKTTDEEINTQLDLFHKFNNTSNERIKIWFALRTIFNTTEELLVRTKELADKYNTGIHMHIAEIADEISFVKQNNGVGTVEYLDKLGVLGPNLLAAHTVWLTHKEIDLFRLHDVKVSHDPGSAMKVVLGFASIPEMLEKGIPVSIGTDGAPSNNRMDLMRDMYLTSLIHKGRTLNPTVVPAEEVLEMATINGAKCALLEKEIGSLEVGKKADMIILNPDTIHCLPMHNPIGNIVYSMTSENVDSTICDGKWLMKERKVLVVDESELLNKVKKQASKIKDKAEVKIPSKFKIIK”, which “soluble on expression in E. coli” value is on record?
Its value is “not soluble”.

For “MGSDKIHHHHHHMSQSIRQAVMQASQAWIADFNRQAFADCIARYLPEAQMQVSPFGRFDGVEAISQFWLGFAQQNPGELVYRNVEIKVLSDSQAILSANWRMNIASGFISKELWTLADDGHWYLEEDDFSVLTQLSEPLAPRMRSALVLVDLQNDYFKGGRFALDNCEAAAANAAKLLHHFRSNQLPVIHVQHIFKDPEASFFQAGTQGVEIADMVAPKGNEPVIIKHYVDSFIDTALSQTLIEMGIDKLVVVGAMAQACVQTLCRSAVKAGFECEVISDAIAAPSLSWESQDLSGEQLVAANLISLSFGGAKALSLDDWLILERLAG”, which “soluble on expression in E. coli” value is on record?
Its value is “not soluble”.

For “MGSDKIHHHHHHMSQYAEMSLVYDQLTQDQPYEKWFEIVKNHCKDESNILDIGCGTGSLTVQLEALGNVTGMDLSVDMLTVAAQKSANVNWLEGDMTSFDLQQQFDIITIFCDSLNYLQDETAVIETFINVYHHLTDSGVFIFDVHTVYKMMTLFNNQSYIDDKGDIFLAWDAVQGDLPLSVYHDMTFFIRHEDETYSRFDESHFQRTFDEKTYLSWLAQVGFKHVETFTDFNIDEHNEDTERLFFIAKK”, which “soluble on expression in E. coli” value is on record?
Its value is “not soluble”.

For “MGSDKIHHHHHHMSRPAITAIPVFKLYGETTAWPTPDLIHCESIPERSRMHDWEIKPHRHGDLVQLLYVQSGKAMLKVEDRVRKVETASLQVVPALSVHTFRFAEDIQGHILSLAKPLVEQLETTLDSSAMRTARCYELGADSHYVDTLFSAIAREYRQPRAGRDLMLHSLINVLVVWLSRRNSEEAGEQVQTMDRGREHLQVFMHQLETCFREHWSIEQHAQAMGISAAHLNALCRRLCDQSALQIISQRLLLEAKRNLIYTTLTINQVSDSLGFSEPAYFSRFFKRATGQSPREFRQQK”, which “soluble on expression in E. coli” value is on record?
Its value is “not soluble”.

With “MGSDKIHHHHHHMSRVNELVGTLFTGGRKPDDLYGRVFVVSAFGGITNLLLEHKKTGEPGVYARFADAESDHGWHEALSRVGDEMRKAHEAVLENAGDVAQADAFVSERIEGARNCLIDLQRLCSYGHFRLAEHMLQIRELLSGLGEAHSAYVTALLLQRAGVNARFVDLSGWRDEGDVTLEERISSALNDVDPATEMPIVTGYAQCAEGLMREFDRGYSEVTFSCLAALTGASEAIIHKEFHLSSADPKLVGEGVAQKLGHTNYDVADQMSNMGMEAIHPKAAKTLRQADVPLRVTNAFEPEDPGTLIDDKPADQPAVEMITGLDIIALELFEQDMVGVKGYDAAILEVLTRHDVRIVSKTSNANTITHYLDTSLTVLKRVEKDLAKIYPNADISARLLSMASAIGRDLKGLSVLTRGLQAIADVGLASLGASQGPRNVDVQFIVEREDLKPVISALHKVLVEGRPAKQEKPIKAAA” as the sequence, how does the “soluble on expression in E. coli” value read?
Its value is “not soluble”.

For “MGSDKIHHHHHHMSRYVIRTYKVPVPVELYPLCSELNRIAARIYNKTMSLVKKIKNKKGFWLSPNTAQKYILRWSSAIDIHTHSKQAMVQLYFQALNSYFVAVKTNPHAKPPYKRKNFLPFIWKNQAIKLLPDGKVKLSMGRNREPFVIPTTLPAGTTIRQAKLVYEAGRYYLHLAIEVKSEHKRGQSQKVMSVDVGILRPITCFDGSEVISYHGGVLNSILRYRNKRLADIQRALSRCQKGSRRYKKLSRAKRRVLYKTRNQINDVLHKITSHFIGLCVQKNIGTIVVGDITNIRERTNGNDNFNQKLHQWAFRKLMSQIEYKAQIFGIEVVRISEAHTSKTCPVCGTQNRPSGRNYKCAGCGFEYHRDGVGAINIWKRYLGTKSQVVAGLAPARGVRFNPHLCGHGAISAPWKAA”, which “soluble on expression in E. coli” value is on record?
Its value is “not soluble”.

With “MGSDKIHHHHHHMSSDSVIRVSNLGKRYEIYAQPKDRLKQMVMPRLKRMIGMHPPEYFREFWALRGVSFEVRRGETVAIIGQNGSGKSTLLQLVCGTLFPTNGDIQVKGRIAALLELGAGFNPEFTGEENIYLSGLLYGISEDELRNRFDSIVEFAEIGEFISQPVKTYSSGMYVRLAFAIAAHVDADMLVVDEALSVGDVRFTQKCMRFLREFQKTGTLLFVSHDVGAVTSLCSRAIWLNQGVLKMDGPAKETVEAYLAEQHALDRGQRGDVVQLAKAREKVAKQPAKAANPPVVDVVDQRWEALRANGSGTRIEVFEFMPDSSESEFGARGATIERVALRNEAGEDLPIVQGGELVDLYIESRSHQALAGLIFGFYLKDRLGQRLFGDNTFMTYADREVRSQAGDTHIARFRFRMPIMPVGAYSFDVAIATGNQHDHTQQHWIHDALSMRAVDSTMRHGLVGIPMLEIAISKEG” as the sequence, how does the “soluble on expression in E. coli” value read?
Its value is “not soluble”.

For “MGSDKIHHHHHHMSSHQLPFQRSDEEVQASSGDSLTIARKQEVVQLLKQISDRTLKNDIISLGMVRNLRIVDDYIYLRLYIGSHQHQLETEIQTVLSSLTWSKKTYIQLCTIPGVRTTLAVSSGKGGVGKSTTAVNLAAALQLAGAKVGLLDADVYGPNVPQMLGLGKSEVKVIDTPKGQRFVPLEAHGIKVMSVGLLAEADHPLAWRGPVLHKIITQFIHEVEWGELDYLLIDLPPGTGDAQITIVQESPICGVILVTTPQNVAISDVRRSVYMFRQVGVPVIEIIENMSYFIGNGGEKISIFGSGGGQKLVEELKAPLLGQIPIDPLICNGGDVGEPLMLVDPNSKASQVFVQIAGALNATFSGSM”, which “soluble on expression in E. coli” value is on record?
The value was “not soluble”.
